From the supplement of paper PMC9112550, “Optimization of the antimicrobial peptide Bac7 by deep mutational scanning” (BMC Biology, 2022)

Tested on: Escherichia coli TOP10
Assay: shrunken log2 fold change of peptide-encoding DNA abundance (4.5 h post-induction vs induction); higher = less antimicrobial activity (less host growth inhibition)
Settings: time post-induction: 4.5 h; library: site-saturation at positions 5, 18, 19, 20
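Further: peptides expressed intracellularly from a pBAD plasmid library in pooled LB shake-flask culture, induced with 0.3% L-arabinose, DNA abundance read by NGS, three biological replicates, DESeq2 with apeglm shrinkage.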

RRIRRRPPRLPRPRPRPAMTPRP
shrunken log2 fold change: 0.314

RRIRLRPPRLPRPRPRPHGDPRP
shrunken log2 fold change: -0.0331

RRIRNRPPRLPRPRPRPHKMPRP
shrunken log2 fold change: -0.634

RRIRSRPPRLPRPRPRPHPKPRP
shrunken log2 fold change: 0.12

RRIRVRPPRLPRPRPRPANNPRP
shrunken log2 fold change: -0.272

RRIRGRPPRLPRPRPRPPWVPRP
shrunken log2 fold change: 0.753

RRIRFRPPRLPRPRPRPCNTPRP
shrunken log2 fold change: -0.0482

RRIRNRPPRLPRPRPRPKTEPRP
shrunken log2 fold change: -0.067

RRIRHRPPRLPRPRPRPAMEPRP
shrunken log2 fold change: 0.0691

RRIRFRPPRLPRPRPRPSCFPRP
shrunken log2 fold change: -0.0773

RRIRIRPPRLPRPRPRPVCEPRP
shrunken log2 fold change: 0.0639

RRIRLRPPRLPRPRPRPQMCPRP
shrunken log2 fold change: -0.0742

RRIRGRPPRLPRPRPRPDYEPRP
shrunken log2 fold change: 0.19

RRIRLRPPRLPRPRPRPRIAPRP
shrunken log2 fold change: 0.317

RRIRGRPPRLPRPRPRPLGHPRP
shrunken log2 fold change: 0.595

RRIRIRPPRLPRPRPRPAEYPRP
shrunken log2 fold change: 0.0308

RRIRRRPPRLPRPRPRPETTPRP
shrunken log2 fold change: 1.09

RRIRNRPPRLPRPRPRPHMFPRP
shrunken log2 fold change: -0.0579

RRIRTRPPRLPRPRPRPHCFPRP
shrunken log2 fold change: -0.102

RRIRDRPPRLPRPRPRPDDNPRP
shrunken log2 fold change: 0.153

RRIRKRPPRLPRPRPRPTGKPRP
shrunken log2 fold change: 0.905

RRIRFRPPRLPRPRPRPVGTPRP
shrunken log2 fold change: 0.00754

RRIRQRPPRLPRPRPRPQIYPRP
shrunken log2 fold change: 0.0392

RRIRNRPPRLPRPRPRPLFLPRP
shrunken log2 fold change: -0.547

RRIRKRPPRLPRPRPRPRTFPRP
shrunken log2 fold change: 0.243

RRIRPRPPRLPRPRPRPDQMPRP
shrunken log2 fold change: 0.196

RRIRFRPPRLPRPRPRPHPCPRP
shrunken log2 fold change: -0.231

RRIRDRPPRLPRPRPRPHFRPRP
shrunken log2 fold change: -0.121

RRIRLRPPRLPRPRPRPDDGPRP
shrunken log2 fold change: -0.00277

RRIRQRPPRLPRPRPRPPNHPRP
shrunken log2 fold change: -0.157

RRIRRRPPRLPRPRPRPPLDPRP
shrunken log2 fold change: 1.24

RRIRYRPPRLPRPRPRPRISPRP
shrunken log2 fold change: -0.218

RRIRHRPPRLPRPRPRPSMRPRP
shrunken log2 fold change: 0.204

RRIRARPPRLPRPRPRPFCQPRP
shrunken log2 fold change: -0.0229

RRIRIRPPRLPRPRPRPFNLPRP
shrunken log2 fold change: -0.496

RRIRWRPPRLPRPRPRPIDHPRP
shrunken log2 fold change: -0.166

RRIRARPPRLPRPRPRPARVPRP
shrunken log2 fold change: 0.813

RRIRLRPPRLPRPRPRPMVIPRP
shrunken log2 fold change: 0.036

RRIRGRPPRLPRPRPRPMHSPRP
shrunken log2 fold change: 0.668

RRIRERPPRLPRPRPRPNIYPRP
shrunken log2 fold change: -0.538

RRIRFRPPRLPRPRPRPECFPRP
shrunken log2 fold change: 0.0331

RRIRSRPPRLPRPRPRPHVHPRP
shrunken log2 fold change: -0.412

RRIRCRPPRLPRPRPRPWSMPRP
shrunken log2 fold change: -0.308

RRIRRRPPRLPRPRPRPRNEPRP
shrunken log2 fold change: 0.18

RRIRDRPPRLPRPRPRPFDFPRP
shrunken log2 fold change: 0.122

RRIRLRPPRLPRPRPRPKSDPRP
shrunken log2 fold change: 0.00855

RRIRMRPPRLPRPRPRPFPNPRP
shrunken log2 fold change: -0.288

RRIRYRPPRLPRPRPRPKRYPRP
shrunken log2 fold change: -0.0281

RRIRGRPPRLPRPRPRPFHIPRP
shrunken log2 fold change: -0.14

RRIRDRPPRLPRPRPRPTWQPRP
shrunken log2 fold change: 0.542

RRIRHRPPRLPRPRPRPMIWPRP
shrunken log2 fold change: -0.00298

RRIRSRPPRLPRPRPRPSIEPRP
shrunken log2 fold change: -0.013

RRIRVRPPRLPRPRPRPRHNPRP
shrunken log2 fold change: -0.389

RRIRKRPPRLPRPRPRPHYTPRP
shrunken log2 fold change: -0.395

RRIRGRPPRLPRPRPRPEHGPRP
shrunken log2 fold change: 0.602

RRIRLRPPRLPRPRPRPCRNPRP
shrunken log2 fold change: -0.241

RRIRMRPPRLPRPRPRPVLAPRP
shrunken log2 fold change: 0.493

RRIRLRPPRLPRPRPRPVLWPRP
shrunken log2 fold change: 0.389

RRIRSRPPRLPRPRPRPRAVPRP
shrunken log2 fold change: 0.582

RRIRYRPPRLPRPRPRPGGCPRP
shrunken log2 fold change: 0.0169

RRIRPRPPRLPRPRPRPFHMPRP
shrunken log2 fold change: -0.301

RRIRGRPPRLPRPRPRPFLEPRP
shrunken log2 fold change: 0.625

RRIRNRPPRLPRPRPRPTANPRP
shrunken log2 fold change: 0.0124

RRIRKRPPRLPRPRPRPPHPPRP
shrunken log2 fold change: 0.672

RRIRPRPPRLPRPRPRPCGTPRP
shrunken log2 fold change: 0.155

RRIRIRPPRLPRPRPRPSFQPRP
shrunken log2 fold change: -0.329

RRIRFRPPRLPRPRPRPHTPPRP
shrunken log2 fold change: 1.24

RRIRKRPPRLPRPRPRPPISPRP
shrunken log2 fold change: 0.22

RRIRSRPPRLPRPRPRPGKSPRP
shrunken log2 fold change: -0.0274

RRIRWRPPRLPRPRPRPILCPRP
shrunken log2 fold change: 0.00316

RRIRKRPPRLPRPRPRPMFVPRP
shrunken log2 fold change: 0.426

RRIRPRPPRLPRPRPRPLLDPRP
shrunken log2 fold change: 0.0537

RRIRWRPPRLPRPRPRPFQFPRP
shrunken log2 fold change: -0.198

RRIRIRPPRLPRPRPRPGMQPRP
shrunken log2 fold change: -0.282

RRIRLRPPRLPRPRPRPHRIPRP
shrunken log2 fold change: -0.0339

RRIRWRPPRLPRPRPRPMFQPRP
shrunken log2 fold change: -0.241

RRIRFRPPRLPRPRPRPKVEPRP
shrunken log2 fold change: 0.114

RRIRARPPRLPRPRPRPAGTPRP
shrunken log2 fold change: 0.308

RRIRLRPPRLPRPRPRPQENPRP
shrunken log2 fold change: -0.261

RRIRYRPPRLPRPRPRPLYYPRP
shrunken log2 fold change: -1.44

RRIRQRPPRLPRPRPRPSYEPRP
shrunken log2 fold change: 0.0509

RRIRYRPPRLPRPRPRPHHTPRP
shrunken log2 fold change: -0.418

RRIRFRPPRLPRPRPRPTFKPRP
shrunken log2 fold change: 0.0617

RRIRQRPPRLPRPRPRPEVLPRP
shrunken log2 fold change: 0.0411

RRIRYRPPRLPRPRPRPDFRPRP
shrunken log2 fold change: 0.129

RRIRDRPPRLPRPRPRPPCQPRP
shrunken log2 fold change: 0.029

RRIRFRPPRLPRPRPRPQYFPRP
shrunken log2 fold change: -0.416

RRIRNRPPRLPRPRPRPSPVPRP
shrunken log2 fold change: 0.00108

RRIRIRPPRLPRPRPRPDMRPRP
shrunken log2 fold change: -0.0655

RRIRDRPPRLPRPRPRPGHCPRP
shrunken log2 fold change: -0.0141

RRIRSRPPRLPRPRPRPVMGPRP
shrunken log2 fold change: -0.0522

RRIRNRPPRLPRPRPRPVCHPRP
shrunken log2 fold change: -0.169

RRIRPRPPRLPRPRPRPYTYPRP
shrunken log2 fold change: -0.0956

RRIRERPPRLPRPRPRPTFTPRP
shrunken log2 fold change: -0.134

RRIRIRPPRLPRPRPRPQPGPRP
shrunken log2 fold change: 0.116

RRIRNRPPRLPRPRPRPAMFPRP
shrunken log2 fold change: -0.204

RRIRKRPPRLPRPRPRPASFPRP
shrunken log2 fold change: 0.559

RRIRIRPPRLPRPRPRPKWMPRP
shrunken log2 fold change: -0.178

RRIRHRPPRLPRPRPRPSCVPRP
shrunken log2 fold change: -0.308

RRIRWRPPRLPRPRPRPFAIPRP
shrunken log2 fold change: 0.086

RRIRCRPPRLPRPRPRPGYMPRP
shrunken log2 fold change: -0.836

RRIRMRPPRLPRPRPRPIVPPRP
shrunken log2 fold change: 0.208

RRIRKRPPRLPRPRPRPHHYPRP
shrunken log2 fold change: -0.737

RRIRCRPPRLPRPRPRPDDDPRP
shrunken log2 fold change: 0.0464

RRIRHRPPRLPRPRPRPNYHPRP
shrunken log2 fold change: -0.83

RRIRERPPRLPRPRPRPVNSPRP
shrunken log2 fold change: 0.0303

RRIRHRPPRLPRPRPRPLLYPRP
shrunken log2 fold change: -0.528

RRIRIRPPRLPRPRPRPMSCPRP
shrunken log2 fold change: -0.141

RRIRARPPRLPRPRPRPCFFPRP
shrunken log2 fold change: 0.145

RRIRLRPPRLPRPRPRPWPWPRP
shrunken log2 fold change: 0.0352

RRIRWRPPRLPRPRPRPRQMPRP
shrunken log2 fold change: 0.0196

RRIRIRPPRLPRPRPRPSPRPRP
shrunken log2 fold change: -0.0771

RRIRERPPRLPRPRPRPCLWPRP
shrunken log2 fold change: -0.0179

RRIRERPPRLPRPRPRPETDPRP
shrunken log2 fold change: -0.0989

RRIRPRPPRLPRPRPRPRLQPRP
shrunken log2 fold change: 0.176

RRIRHRPPRLPRPRPRPPRWPRP
shrunken log2 fold change: 0.137

RRIRPRPPRLPRPRPRPFRKPRP
shrunken log2 fold change: -0.0819

RRIRQRPPRLPRPRPRPNEHPRP
shrunken log2 fold change: -0.0963

RRIRYRPPRLPRPRPRPIWFPRP
shrunken log2 fold change: -0.269

RRIRGRPPRLPRPRPRPSLQPRP
shrunken log2 fold change: 1.07

RRIRIRPPRLPRPRPRPAAMPRP
shrunken log2 fold change: 0.391

RRIRRRPPRLPRPRPRPRPGPRP
shrunken log2 fold change: 0.557

RRIRFRPPRLPRPRPRPRSGPRP
shrunken log2 fold change: 0.444

RRIRLRPPRLPRPRPRPLKCPRP
shrunken log2 fold change: -0.0489

RRIRGRPPRLPRPRPRPLPCPRP
shrunken log2 fold change: 0.51
